Test results reported in US20060084798, “cDNAs and proteins involved in hypoxia, circadian and orphan signal transduction pathways, and methods of use” (published 2006).
Read-outs that look alike come from different tables or passages of the source.

How the values were obtained:
MOP1 (HIF1alpha) [1] = target: T1, MOP1 (HIF1alpha) (Homo sapiens, UniProt Q16665 SEQ:1-826); experiment: EMSA; HIF1alpha alone
[2] = target: T2, MOP1 (HIF1alpha)/ARNT heterodimer (Homo sapiens, UniProt Q16665;P27540 Q16665:1-826,P27540:1-789); experiment: EMSA
T2 sequence (Q16665 whole entry, chain 1 of 2): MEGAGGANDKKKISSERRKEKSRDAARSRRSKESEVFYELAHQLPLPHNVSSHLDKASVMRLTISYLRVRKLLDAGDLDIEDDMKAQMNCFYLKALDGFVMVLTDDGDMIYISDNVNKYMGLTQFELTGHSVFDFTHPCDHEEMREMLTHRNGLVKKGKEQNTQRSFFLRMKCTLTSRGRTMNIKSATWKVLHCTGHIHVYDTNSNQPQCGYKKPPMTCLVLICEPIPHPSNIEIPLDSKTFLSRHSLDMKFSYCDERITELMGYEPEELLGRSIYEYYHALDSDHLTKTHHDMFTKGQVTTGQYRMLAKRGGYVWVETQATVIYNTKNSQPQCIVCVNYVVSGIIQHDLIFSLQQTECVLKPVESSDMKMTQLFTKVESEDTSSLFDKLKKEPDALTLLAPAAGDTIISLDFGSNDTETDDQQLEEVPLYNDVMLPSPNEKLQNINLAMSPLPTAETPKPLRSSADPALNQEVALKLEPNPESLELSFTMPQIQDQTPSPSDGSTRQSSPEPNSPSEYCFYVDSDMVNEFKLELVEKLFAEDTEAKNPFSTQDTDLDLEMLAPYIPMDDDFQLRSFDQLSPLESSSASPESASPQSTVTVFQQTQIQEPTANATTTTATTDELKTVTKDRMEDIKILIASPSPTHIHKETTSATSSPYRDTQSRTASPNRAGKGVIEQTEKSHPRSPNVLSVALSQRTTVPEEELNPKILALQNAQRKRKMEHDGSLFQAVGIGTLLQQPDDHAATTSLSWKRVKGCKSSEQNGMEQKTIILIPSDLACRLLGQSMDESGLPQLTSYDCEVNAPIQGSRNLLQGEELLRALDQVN
T2 sequence (P27540 whole entry, chain 2 of 2): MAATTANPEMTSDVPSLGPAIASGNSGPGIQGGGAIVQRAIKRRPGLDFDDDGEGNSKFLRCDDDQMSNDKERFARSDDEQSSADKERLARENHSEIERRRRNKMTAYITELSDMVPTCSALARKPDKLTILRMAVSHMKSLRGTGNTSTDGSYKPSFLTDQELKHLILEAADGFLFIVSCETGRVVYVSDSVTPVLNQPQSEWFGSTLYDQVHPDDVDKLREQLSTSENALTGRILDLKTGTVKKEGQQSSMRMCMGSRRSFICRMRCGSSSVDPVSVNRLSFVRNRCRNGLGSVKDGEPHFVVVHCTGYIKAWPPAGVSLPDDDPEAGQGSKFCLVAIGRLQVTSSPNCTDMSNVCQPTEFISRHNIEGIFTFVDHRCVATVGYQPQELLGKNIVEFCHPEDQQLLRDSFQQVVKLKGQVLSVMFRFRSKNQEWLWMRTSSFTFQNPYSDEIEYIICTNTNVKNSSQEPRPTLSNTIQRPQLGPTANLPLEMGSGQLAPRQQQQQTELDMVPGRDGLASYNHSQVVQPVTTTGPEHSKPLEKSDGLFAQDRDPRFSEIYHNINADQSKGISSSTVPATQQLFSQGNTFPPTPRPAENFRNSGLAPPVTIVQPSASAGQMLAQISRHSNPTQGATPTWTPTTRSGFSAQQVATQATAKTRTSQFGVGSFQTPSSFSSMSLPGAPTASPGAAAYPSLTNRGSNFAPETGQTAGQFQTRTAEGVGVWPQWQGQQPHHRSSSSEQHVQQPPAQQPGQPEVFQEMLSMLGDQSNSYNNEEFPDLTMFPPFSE

MOP1 (HIF1alpha)/AHR = MOP1 (HIF1alpha)/AHR (UniProt Q16665;P35869 Q16665:1-826,P35869:1-848); experiment: EMSA; no complex with any bHLH-PAS family response element
MOP1 (HIF1alpha)/AHR, sequence (Q16665 whole entry, chain 1 of 2): as the sequence (Q16665 whole entry, chain 1 of 2) above
MOP1 (HIF1alpha)/AHR, sequence (P35869 whole entry, chain 2 of 2): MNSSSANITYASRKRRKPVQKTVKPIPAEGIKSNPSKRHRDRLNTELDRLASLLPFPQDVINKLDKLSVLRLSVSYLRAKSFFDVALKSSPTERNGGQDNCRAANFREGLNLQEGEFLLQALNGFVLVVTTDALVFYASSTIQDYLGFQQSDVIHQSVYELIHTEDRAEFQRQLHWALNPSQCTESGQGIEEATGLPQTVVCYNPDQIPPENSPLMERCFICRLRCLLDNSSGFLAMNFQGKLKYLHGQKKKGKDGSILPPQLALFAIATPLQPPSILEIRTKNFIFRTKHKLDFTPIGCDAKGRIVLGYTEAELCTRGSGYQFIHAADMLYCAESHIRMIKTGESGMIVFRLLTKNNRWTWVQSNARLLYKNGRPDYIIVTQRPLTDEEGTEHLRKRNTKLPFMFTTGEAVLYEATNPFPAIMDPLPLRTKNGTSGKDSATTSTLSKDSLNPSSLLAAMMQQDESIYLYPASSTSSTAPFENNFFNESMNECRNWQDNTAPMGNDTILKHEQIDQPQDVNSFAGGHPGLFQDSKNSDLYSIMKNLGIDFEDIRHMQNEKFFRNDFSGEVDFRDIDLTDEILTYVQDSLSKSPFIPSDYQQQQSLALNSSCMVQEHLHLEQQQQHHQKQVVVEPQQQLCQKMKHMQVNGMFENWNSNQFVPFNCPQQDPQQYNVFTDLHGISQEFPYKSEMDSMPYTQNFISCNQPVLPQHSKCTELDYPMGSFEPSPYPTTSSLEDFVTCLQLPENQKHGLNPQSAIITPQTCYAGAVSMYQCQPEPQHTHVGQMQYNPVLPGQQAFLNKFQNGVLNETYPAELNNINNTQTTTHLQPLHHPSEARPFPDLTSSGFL

[3] = target: ARNT/HIF2alpha (transfected) (Homo sapiens, UniProt P27540;Q99814 P27540:1-789,Q99814:1-870); experiment: cell_activity; COS-1 luciferase
Method: (§1) Cell Culture and Transient Transfection. Transient transfections of COS-1 cells were performed by the Lipofectamine protocol (GIBCO) as described in Example 1. To mimic hypoxia, 100 μM of cobalt chloride was included in the cell growth media and incubated at 37° C. until harvest. To monitor the transcriptional activity of the MOP3-MOP4 or MOP3-CLOCK heterodimers, a synthetic reporter was constructed by annealing phosphorylated oligonucleotides OL1116 and OL1117 and cloning them into the BglII site in the reporter plasmid pGL3p (Promega). To measure the transcriptional activity of the MOP3-HIF1α or MOP3-HIF2α heterodimers, a synthetic reporter was constructed by annealing phosphorylated oligonucleotides OL1155 and OL1156 and then cloning them as above. Luciferase levels were reported in relation to β-galactosidase activity as described in Example 1.
(§2) To determine if MOP3 formed a transcriptionally active complex with either HIF1α or HIF2α in vivo, we constructed a synthetic reporter using six copies of the M13 element described above. […] Like ARNT, upon exposure of these transfected cells to cobalt chloride to simulate cellular hypoxia, MOP3 interacted and drove transcription in complexes with both HIF1α and with HIF2α.

[4] = target: ARNT/HIF1alpha (transfected) (Homo sapiens, UniProt P27540;Q16665 P27540:1-789,Q16665:1-826); experiment: cell_activity; COS-1 luciferase
Method: as §1, §2

[5] = target: T2, MOP1 (HIF1alpha)/ARNT heterodimer; experiment: EMSA; higher affinity than MOP1 or ARNT alone
ARNT = ARNT (Homo sapiens, UniProt P27540 P27540:1-789); experiment: EMSA; ARNT alone; conditions: label: 32P
ARNT, sequence (P27540 whole entry, one chain of several): as the sequence (P27540 whole entry, chain 2 of 2) above

MOP1 (HIF1alpha) [6] = target: T1, MOP1 (HIF1alpha); experiment: EMSA; MOP1 alone; conditions: label: 32P
[7] = target: MOP7 (HIF3alpha)/human ARNT heterodimer (Mus musculus, UniProt Q0VBL6;P27540 Q0VBL6:1-662,P27540:1-789); experiment: EMSA; abolished by anti-ARNT; conditions: label: 32P
Method: Gel-shift assay. To generate a double strand oligonucleotide probe containing the core HRE element, 50 ng of oligonucleotide OL414 was end-labeled with [γ-³²P]ATP and was annealed with 10 fold excess of cold complementary oligonucleotide OL415. […] For expression of the bHLH-PAS proteins, mMOP7 (PL1025) and hARNT (PL87) were synthesized in a reticulocyte lysate in the presence of [³⁵S]methionine. The amount of each protein synthesized was calculated by measuring radioactivity and estimated to be approximately 1 fmol in each 10 μl gel-shift reaction. Each gel-shift assay was performed with 100,000 cpm of oligonucleotide probe per 10 μl reaction. To confirm complex identity, 1 μl of anti-ARNT sera was used to supershift the DNA bound protein complex.
As a biochemical proof that MOP7 was a bona fide α-class HIF, we performed gel-shift and transient transfection analyses. Because HIF1α and HIF2α are known to pair with the β-class HIF subunit ARNT, we predicted that MOP7 would also pair with ARNT. Based upon sequence identity in their basic regions, we also predicted that a MOP7-ARNT would bind the HRE core sequence, TACGTG. […] First, the MOP7-ARNT-HRE complex was abolished by anti-ARNT IgGs but not by preimmune antibodies. Second, the complex was blocked by an excess of HRE containing oligonucleotide but not by oligonucleotides with a single mutation within the core HRE sequence. […]

[8] = target: T2, MOP1 (HIF1alpha)/ARNT heterodimer; experiment: EMSA; oligo assignment by core; supershifted by antisera; conditions: label: 32P
[9] = target: MOP2 (HIF2alpha)/ARNT heterodimer (Homo sapiens, UniProt Q99814;P27540 Q99814:1-870,P27540:1-789); experiment: EMSA; approximately equal to MOP1-ARNT; supershifted by antisera; conditions: label: 32P

T1 sequence (Q16665 whole entry): as the sequence (Q16665 whole entry, chain 1 of 2) above

B1: M13 element (dsDNA)
DNA 1: GCCCTACGTGACCC
DNA 2: GGGTCACGTAGGGC
MOP1 (HIF1alpha) [1]
  binding result: no binding

B2: OL443/OL444 GTGCGTG (SAE) (dsDNA)
DNA 1: TCGAGCTGGGCAGGGTGCGTGGCAAGGC
DNA 2: TCGAGCCTTGCCACGCACCCTGCCCAGC
[2]
  binding result: no binding
MOP1 (HIF1alpha)/AHR
  binding result: no binding

B3: M13 reporter insert OL1155 (reporter carries six M13 copies) (dsDNA)
DNA 1: GATCGGATACGTGACCATTGGTTACGTGTCCATTGGATACGTGACC
DNA 2: GGTCACGTATCCAATGGACACGTAACCAATGGTCACGTATCCGATC
[3]
  activity: 8.1 fold
[4]
  activity: 14.1 fold

B4: OL445/OL446 CACGTG E-box (dsDNA)
DNA 1: TCGAGCTGGGCAGGTCACGTGGCAAGGC
DNA 2: TCGAGCCTTGCCACGTGACCTGCCCAGC
[5]
  binding result: binds
MOP1 (HIF1alpha)/AHR
  binding result: no binding

B5: OL447/OL448 TTGCGTG (DRE) (dsDNA)
DNA 1: TCGAGCTGGGCAGGTTGCGTGGCAAGGC
DNA 2: TCGAGCCTTGCCACGCAACCTGCCCAGC
[2]
  binding result: no binding
MOP1 (HIF1alpha)/AHR
  binding result: no binding

B6: OL414/OL415 TACGTG (HRE) (dsDNA)
DNA 1: TCGAGCTGGGCAGGGTACGTGGCAAGGC
DNA 2: TCGAGCCTTGCCACGTACCCTGCCCAGC
ARNT
  binding result: no binding
MOP1 (HIF1alpha) [6]
  binding result: no binding
[7]
  binding result: binds
[8]
  binding result: binds
MOP1 (HIF1alpha)/AHR; label: 32P
  binding result: no binding
[9]
  binding result: binds
